B1: McrA from the ΔmamA mutant of M. acetivorans (lacks 5-(S)-methylarginine) (natural protein, Methanosarcina acetivorans, UniProt Q8THH1 1-570, looked up)
chain: MAADIFAKFKKSMEVKFTQEYGSNKQAGGDITGKTEKFLRLGPEQDARKQEMIKAGKEIAEKRGIAFYNPMMHMGAPLGQRAITPYTISGTDIVAEPDDLHYVNNAAMQQMWDDIRRTCIVGLDMAHETLEKRLGKEVTPETINHYLETLNHAMPGAAVVQEMMVETHPALVDDCYVKIFTGDDELADEIDKQYVINVNKMFSEEQAAQIKASIGKTTWQAIHIPTIVSRTTDGAQTSRWAAMQIGMSFISAYAMCAGEAAVADLSFAAKHAALVSMGEMLPARRARGPNEPGGLSFGHLSDIVQTSRVSKDPAKIALEVVGAGCMLYDQIWLGSYMSGGVGFTQYATAAYTDDILDNNTYYDVDYINDKYNGAANLGTDNKVKATLDVVKDIATESTLYGIETYEKFPTALEDHFGGSQRATVLAAASGVACALATGNANAGLSGWYLSMYVHKEAWGRLGFFGFDLQDQCGATNVLSYQGDEGLPDELRGPNYPNYAMNVGHQGGYAGIAQAAHSGRGDAFTVNPLLKVCFADELMPFNFAEPRREFGRGAIREFMPAGERSLVIPAK
modifications: N1-methylhistidine at His271; thioglycine at Gly465; didehydroaspartate at Asp470; S-methylcysteine at Cys472; Arg285 unmodified
notes: McrA, alpha subunit of methyl-coenzyme M reductase, Methanosarcina acetivorans; chromosomally encoded; differs only in the posttranslational modifications; also called McrA with unmodified Arg285; source: endogenous, M. acetivorans ΔmamA strain with TAP-tagged mcrG
B2: McrA from the ΔycaO-tfuA mutant of M. acetivorans (lacks thioglycine) (natural protein, Methanosarcina acetivorans, UniProt Q8THH1 1-570, looked up)
chain: MAADIFAKFKKSMEVKFTQEYGSNKQAGGDITGKTEKFLRLGPEQDARKQEMIKAGKEIAEKRGIAFYNPMMHMGAPLGQRAITPYTISGTDIVAEPDDLHYVNNAAMQQMWDDIRRTCIVGLDMAHETLEKRLGKEVTPETINHYLETLNHAMPGAAVVQEMMVETHPALVDDCYVKIFTGDDELADEIDKQYVINVNKMFSEEQAAQIKASIGKTTWQAIHIPTIVSRTTDGAQTSRWAAMQIGMSFISAYAMCAGEAAVADLSFAAKHAALVSMGEMLPARRARGPNEPGGLSFGHLSDIVQTSRVSKDPAKIALEVVGAGCMLYDQIWLGSYMSGGVGFTQYATAAYTDDILDNNTYYDVDYINDKYNGAANLGTDNKVKATLDVVKDIATESTLYGIETYEKFPTALEDHFGGSQRATVLAAASGVACALATGNANAGLSGWYLSMYVHKEAWGRLGFFGFDLQDQCGATNVLSYQGDEGLPDELRGPNYPNYAMNVGHQGGYAGIAQAAHSGRGDAFTVNPLLKVCFADELMPFNFAEPRREFGRGAIREFMPAGERSLVIPAK
modifications: N1-methylhistidine at His271; 5-(S)-methylarginine at Arg285; didehydroaspartate at Asp470; S-methylcysteine at Cys472; Gly465 unmodified
notes: McrA, alpha subunit of methyl-coenzyme M reductase, Methanosarcina acetivorans; chromosomally encoded; differs only in the posttranslational modifications; also called McrA with unmodified Gly465; source: endogenous, M. acetivorans ΔycaO-tfuA strain with TAP-tagged mcrG
B3: McrA from the ΔmcmA mutant of M. acetivorans (lacks S-methylcysteine) (natural protein, Methanosarcina acetivorans, UniProt Q8THH1 1-570, looked up)
chain: MAADIFAKFKKSMEVKFTQEYGSNKQAGGDITGKTEKFLRLGPEQDARKQEMIKAGKEIAEKRGIAFYNPMMHMGAPLGQRAITPYTISGTDIVAEPDDLHYVNNAAMQQMWDDIRRTCIVGLDMAHETLEKRLGKEVTPETINHYLETLNHAMPGAAVVQEMMVETHPALVDDCYVKIFTGDDELADEIDKQYVINVNKMFSEEQAAQIKASIGKTTWQAIHIPTIVSRTTDGAQTSRWAAMQIGMSFISAYAMCAGEAAVADLSFAAKHAALVSMGEMLPARRARGPNEPGGLSFGHLSDIVQTSRVSKDPAKIALEVVGAGCMLYDQIWLGSYMSGGVGFTQYATAAYTDDILDNNTYYDVDYINDKYNGAANLGTDNKVKATLDVVKDIATESTLYGIETYEKFPTALEDHFGGSQRATVLAAASGVACALATGNANAGLSGWYLSMYVHKEAWGRLGFFGFDLQDQCGATNVLSYQGDEGLPDELRGPNYPNYAMNVGHQGGYAGIAQAAHSGRGDAFTVNPLLKVCFADELMPFNFAEPRREFGRGAIREFMPAGERSLVIPAK
modifications: N1-methylhistidine at His271; 5-(S)-methylarginine at Arg285; thioglycine at Gly465; didehydroaspartate at Asp470; Cys472 unmodified
notes: McrA, alpha subunit of methyl-coenzyme M reductase, Methanosarcina acetivorans; chromosomally encoded; differs only in the posttranslational modifications; also called McrA with unmodified Cys472; source: endogenous, M. acetivorans ΔmcmA strain with TAP-tagged mcrG
B4: McrA from the ΔmamAΔmcmAΔycaO-tfuA triple mutant of M. acetivorans (lacks 5-(S)-methylarginine, S-methylcysteine and thioglycine) (natural protein, Methanosarcina acetivorans, UniProt Q8THH1 1-570, looked up)
chain: MAADIFAKFKKSMEVKFTQEYGSNKQAGGDITGKTEKFLRLGPEQDARKQEMIKAGKEIAEKRGIAFYNPMMHMGAPLGQRAITPYTISGTDIVAEPDDLHYVNNAAMQQMWDDIRRTCIVGLDMAHETLEKRLGKEVTPETINHYLETLNHAMPGAAVVQEMMVETHPALVDDCYVKIFTGDDELADEIDKQYVINVNKMFSEEQAAQIKASIGKTTWQAIHIPTIVSRTTDGAQTSRWAAMQIGMSFISAYAMCAGEAAVADLSFAAKHAALVSMGEMLPARRARGPNEPGGLSFGHLSDIVQTSRVSKDPAKIALEVVGAGCMLYDQIWLGSYMSGGVGFTQYATAAYTDDILDNNTYYDVDYINDKYNGAANLGTDNKVKATLDVVKDIATESTLYGIETYEKFPTALEDHFGGSQRATVLAAASGVACALATGNANAGLSGWYLSMYVHKEAWGRLGFFGFDLQDQCGATNVLSYQGDEGLPDELRGPNYPNYAMNVGHQGGYAGIAQAAHSGRGDAFTVNPLLKVCFADELMPFNFAEPRREFGRGAIREFMPAGERSLVIPAK
modifications: N1-methylhistidine at His271; didehydroaspartate at Asp470; Arg285, Gly465 and Cys472 unmodified
notes: McrA, alpha subunit of methyl-coenzyme M reductase, Methanosarcina acetivorans; chromosomally encoded; differs only in the posttranslational modifications; also called McrA from the triple-deletion mutant; source: endogenous, M. acetivorans ΔmamAΔmcmAΔycaO-tfuA strain with TAP-tagged mcrG
B5: McrA from the ΔmamAΔycaO-tfuA double mutant of M. acetivorans (lacks 5-(S)-methylarginine and thioglycine) (natural protein, Methanosarcina acetivorans, UniProt Q8THH1 1-570, looked up)
chain: MAADIFAKFKKSMEVKFTQEYGSNKQAGGDITGKTEKFLRLGPEQDARKQEMIKAGKEIAEKRGIAFYNPMMHMGAPLGQRAITPYTISGTDIVAEPDDLHYVNNAAMQQMWDDIRRTCIVGLDMAHETLEKRLGKEVTPETINHYLETLNHAMPGAAVVQEMMVETHPALVDDCYVKIFTGDDELADEIDKQYVINVNKMFSEEQAAQIKASIGKTTWQAIHIPTIVSRTTDGAQTSRWAAMQIGMSFISAYAMCAGEAAVADLSFAAKHAALVSMGEMLPARRARGPNEPGGLSFGHLSDIVQTSRVSKDPAKIALEVVGAGCMLYDQIWLGSYMSGGVGFTQYATAAYTDDILDNNTYYDVDYINDKYNGAANLGTDNKVKATLDVVKDIATESTLYGIETYEKFPTALEDHFGGSQRATVLAAASGVACALATGNANAGLSGWYLSMYVHKEAWGRLGFFGFDLQDQCGATNVLSYQGDEGLPDELRGPNYPNYAMNVGHQGGYAGIAQAAHSGRGDAFTVNPLLKVCFADELMPFNFAEPRREFGRGAIREFMPAGERSLVIPAK
modifications: N1-methylhistidine at His271; didehydroaspartate at Asp470; S-methylcysteine at Cys472; Arg285 and Gly465 unmodified
notes: McrA, alpha subunit of methyl-coenzyme M reductase, Methanosarcina acetivorans; chromosomally encoded; differs only in the posttranslational modifications; source: endogenous, M. acetivorans ΔmamAΔycaO-tfuA strain with TAP-tagged mcrG
B6: McrA from the ΔmamAΔmcmA double mutant of M. acetivorans (lacks 5-(S)-methylarginine and S-methylcysteine) (natural protein, Methanosarcina acetivorans, UniProt Q8THH1 1-570, looked up)
chain: MAADIFAKFKKSMEVKFTQEYGSNKQAGGDITGKTEKFLRLGPEQDARKQEMIKAGKEIAEKRGIAFYNPMMHMGAPLGQRAITPYTISGTDIVAEPDDLHYVNNAAMQQMWDDIRRTCIVGLDMAHETLEKRLGKEVTPETINHYLETLNHAMPGAAVVQEMMVETHPALVDDCYVKIFTGDDELADEIDKQYVINVNKMFSEEQAAQIKASIGKTTWQAIHIPTIVSRTTDGAQTSRWAAMQIGMSFISAYAMCAGEAAVADLSFAAKHAALVSMGEMLPARRARGPNEPGGLSFGHLSDIVQTSRVSKDPAKIALEVVGAGCMLYDQIWLGSYMSGGVGFTQYATAAYTDDILDNNTYYDVDYINDKYNGAANLGTDNKVKATLDVVKDIATESTLYGIETYEKFPTALEDHFGGSQRATVLAAASGVACALATGNANAGLSGWYLSMYVHKEAWGRLGFFGFDLQDQCGATNVLSYQGDEGLPDELRGPNYPNYAMNVGHQGGYAGIAQAAHSGRGDAFTVNPLLKVCFADELMPFNFAEPRREFGRGAIREFMPAGERSLVIPAK
modifications: N1-methylhistidine at His271; thioglycine at Gly465; didehydroaspartate at Asp470; Arg285 and Cys472 unmodified
notes: McrA, alpha subunit of methyl-coenzyme M reductase, Methanosarcina acetivorans; chromosomally encoded; differs only in the posttranslational modifications; source: endogenous, M. acetivorans ΔmamAΔmcmA strain with TAP-tagged mcrG
B7: McrA from the ΔmcmAΔycaO-tfuA double mutant of M. acetivorans (lacks S-methylcysteine and thioglycine) (natural protein, Methanosarcina acetivorans, UniProt Q8THH1 1-570, looked up)
chain: MAADIFAKFKKSMEVKFTQEYGSNKQAGGDITGKTEKFLRLGPEQDARKQEMIKAGKEIAEKRGIAFYNPMMHMGAPLGQRAITPYTISGTDIVAEPDDLHYVNNAAMQQMWDDIRRTCIVGLDMAHETLEKRLGKEVTPETINHYLETLNHAMPGAAVVQEMMVETHPALVDDCYVKIFTGDDELADEIDKQYVINVNKMFSEEQAAQIKASIGKTTWQAIHIPTIVSRTTDGAQTSRWAAMQIGMSFISAYAMCAGEAAVADLSFAAKHAALVSMGEMLPARRARGPNEPGGLSFGHLSDIVQTSRVSKDPAKIALEVVGAGCMLYDQIWLGSYMSGGVGFTQYATAAYTDDILDNNTYYDVDYINDKYNGAANLGTDNKVKATLDVVKDIATESTLYGIETYEKFPTALEDHFGGSQRATVLAAASGVACALATGNANAGLSGWYLSMYVHKEAWGRLGFFGFDLQDQCGATNVLSYQGDEGLPDELRGPNYPNYAMNVGHQGGYAGIAQAAHSGRGDAFTVNPLLKVCFADELMPFNFAEPRREFGRGAIREFMPAGERSLVIPAK
modifications: N1-methylhistidine at His271; 5-(S)-methylarginine at Arg285; didehydroaspartate at Asp470; Gly465 and Cys472 unmodified
notes: McrA, alpha subunit of methyl-coenzyme M reductase, Methanosarcina acetivorans; chromosomally encoded; differs only in the posttranslational modifications; also called McrA from ΔycaO-tfuA/ΔmcmA; source: endogenous, M. acetivorans ΔmcmAΔycaO-tfuA strain with TAP-tagged mcrG
B8: alpha subunit of methyl-coenzyme M reductase (McrA) from wild-type M. acetivorans, fully modified (natural protein, Methanosarcina acetivorans, UniProt Q8THH1 1-570, looked up)
chain: MAADIFAKFKKSMEVKFTQEYGSNKQAGGDITGKTEKFLRLGPEQDARKQEMIKAGKEIAEKRGIAFYNPMMHMGAPLGQRAITPYTISGTDIVAEPDDLHYVNNAAMQQMWDDIRRTCIVGLDMAHETLEKRLGKEVTPETINHYLETLNHAMPGAAVVQEMMVETHPALVDDCYVKIFTGDDELADEIDKQYVINVNKMFSEEQAAQIKASIGKTTWQAIHIPTIVSRTTDGAQTSRWAAMQIGMSFISAYAMCAGEAAVADLSFAAKHAALVSMGEMLPARRARGPNEPGGLSFGHLSDIVQTSRVSKDPAKIALEVVGAGCMLYDQIWLGSYMSGGVGFTQYATAAYTDDILDNNTYYDVDYINDKYNGAANLGTDNKVKATLDVVKDIATESTLYGIETYEKFPTALEDHFGGSQRATVLAAASGVACALATGNANAGLSGWYLSMYVHKEAWGRLGFFGFDLQDQCGATNVLSYQGDEGLPDELRGPNYPNYAMNVGHQGGYAGIAQAAHSGRGDAFTVNPLLKVCFADELMPFNFAEPRREFGRGAIREFMPAGERSLVIPAK
modifications: N1-methylhistidine at His271; 5-(S)-methylarginine at Arg285; thioglycine at Gly465; didehydroaspartate at Asp470; S-methylcysteine at Cys472
notes: McrA, alpha subunit of methyl-coenzyme M reductase, Methanosarcina acetivorans; chromosomally encoded; Two copies stand in the α2β2γ2 complex; also called α subunit of MCR; α-subunit; source: endogenous, M. acetivorans strain with TAP-tagged mcrG

One data set concerns the molecule itself. Nature of the data set: crystal structure; TAP-tagged MCR variants affinity-purified aerobically from the modification mutants, inactive Ni(II) form; 3-30 mg/ml, hanging drops, same reservoir solution as the wild type; 1.9-2.3 Å.
Take B1: the binding result was “binds”.
For B2, the binding result was “binds”.
As to B3, the binding result was “binds”.
Turning to B4, the binding result is “binds”.
As for B5, the binding result was “binds”.
With B6, the binding result is “binds”.
With B7, the binding result is “binds”.

Another data set deals with the molecule itself. Kind of data set: crystal structure; wild-type TAP-tagged MCR complex affinity-purified aerobically from M. acetivorans, inactive Ni(II) form; 25 mg/ml, sitting drops, 0.2 M ammonium acetate, 0.1 M sodium acetate pH 4, 15% PEG 4000, room temperature; 1.65 Å.
Regarding B8, the binding result is “binds”.

For the origin of these results see PMC7058361, “Functional interactions between posttranslationally modified amino acids of methyl-coenzyme M reductase in Methanosarcina acetivorans” (PLoS Biology, 2020).
